Molecular target: T1, human leukemia inhibitory factor (LIF), soluble (human, UniProt P15018 23-202)
T1 construct: also called human LIF; soluble human LIF
Experiment: yeast surface display, flow cytometry; score from summed fluorescence at 10 pM and 100 pM human LIF, normalized to wild-type and to expression

T1 sequence (P15018 23-202 limits assumed): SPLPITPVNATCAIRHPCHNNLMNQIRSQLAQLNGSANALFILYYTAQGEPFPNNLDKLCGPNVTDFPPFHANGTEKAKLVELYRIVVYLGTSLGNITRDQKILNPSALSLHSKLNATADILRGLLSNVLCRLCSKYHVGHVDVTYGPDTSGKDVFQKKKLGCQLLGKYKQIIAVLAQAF

Row | Score (normalized binding score) | Binder
1 | 13.3 | PAID (receptor, 4 mutations, all marked) yeast-displayed receptor fragment: QKKGAPHDLKCVTNNLQVWNCSWKAPSGTGRGTDYEVCIENRSRSCYQLEKTSIKIPALSHGDYEITINSLHDFGSSTSKFTLNEQNVSLIPDTPEILNLSADFSTSTLYLKWNDRGSVFPHRSNVIWEIKVLRKESMELVKLVTHNTTLNGKDTLHHWSWASDMPLECAIHFVEIRCYIDNLHFSGLEEWSDWSPVKNISWIPDSQTKVFPQDKVIPVGSDITFCCVSQEKVLSALIGHTNCPLIHLDGENVAIKIRNISASASSGTNVVFITEDDIFGTVIFAGYPPDTPQQLNCETHDLKEIICSWNPGRVTALVGPRATSYTLVESFSGKYVRLKRAEAPTNESYQLLFQMLPNQEIYNFTLNAHNPLGRSQSTILVNITEKVYPHTPTSFKVKDINSTAVKLSWHLPGNFAKINFLCEIEIKKSNSVQEQRNVTIKGVENSSYLVALDKLNPYTLYTFRIRCSTETFWKWSKWSNKKQHLTTEAS
2 | 12.2 | PID (receptor) yeast-displayed receptor fragment: QKKGAPHDLKCVTNNLQVWNCSWKAPSGTGRGTDYEVCIENRSRSCYQLEKTSIKIPALSHGDYEITINSLHDFGSSTSKFTLNEQNVSLIPDTPEILNLSADFSTSTLYLKWNDRGSVFPHRSNVIWEIKVLRKESMELVKLVTHNTTLNGKDTLHHWSWASDMPLECAIHFVEIRCYIDNLHFSGLEEWSDWSPVKNISWIPDSQTKVFPQDKVIPVGSDITFCCVSQEKVLSALIGHTNCPLIHLDGENVAIKIRNVSVSASSGTNVVFITEDDIFGTVIFAGYPPDTPQQLNCETHDLKEIICSWNPGRVTALVGPRATSYTLVESFSGKYVRLKRAEAPTNESYQLLFQMLPNQEIYNFTLNAHNPLGRSQSTILVNITEKVYPHTPTSFKVKDINSTAVKLSWHLPGNFAKINFLCEIEIKKSNSVQEQRNVTIKGVENSSYLVALDKLNPYTLYTFRIRCSTETFWKWSKWSNKKQHLTTEAS

More lines, now with the values behind:

Row | Binder | Score (normalized binding score)
3 | PSVID (receptor, 5 mutations, all marked) yeast-displayed receptor fragment: QKKGAPHDLKCVTNNLQVWNCSWKAPSGTGRGTDYEVCIENRSRSCYQLEKTSIKIPALSHGDYEITINSLHDFGSSTSKFTLNEQNVSLIPDTPEILNLSADFSTSTLYLKWNDRGSVFPHRSNVIWEIKVLRKESMELVKLVTHNTTLNGKDTLHHWSWASDMPLECAIHFVEIRCYIDNLHFSGLEEWSDWSPVKNISWIPDSQTKVFPQDKVIPVGSDITFCCVSQEKVLSALIGHTSCPLIHLDGENVAIKIRNVSVSASSGTNVVFITEDDIFGTVIFAGYPPDTPQQLNCETHDLKEIICSWNPGRVTALVGPRATSYTLVESFSGKYVRLKRAEAPTNESYQLLFQMLPNQEIYNFTLNAHNPLGRSQSTILVNITEKVYPHTPTSFKVKDINSTAVKLSWHLPGNFAKINFLCEIEIKKSNSVQEQRNVTIKGVENSSYLVALDKLNPYTLYTFRIRCSTETFWKWSKWSNKKQHLTTEAS | 13.4
4 | PRVAID (receptor) yeast-displayed receptor fragment: QKKGAPHDLKCVTNNLQVWNCSWKAPSGTGRGTDYEVCIENRSRSCYQLEKTSIKIPALSHGDYEITINSLHDFGSSTSKFTLNEQNVSLIPDTPEILNLSADFSTSTLYLKWNDRGSVFPHRSNVIWEIKVLRKESMELVKLVTHNTTLNGKDTLHHWSWASDMPLECAIHFVEIRCYIDNLHFSGLEEWSDWSPVKNISWIPDSQTKVFPQDKVIPVGSDITFCCVSQEKVLSALIGRTNCPLIHLDGENVAIKVRNISASASSGTNVVFITEDDIFGTVIFAGYPPDTPQQLNCETHDLKEIICSWNPGRVTALVGPRATSYTLVESFSGKYVRLKRAEAPTNESYQLLFQMLPNQEIYNFTLNAHNPLGRSQSTILVNITEKVYPHTPTSFKVKDINSTAVKLSWHLPGNFAKINFLCEIEIKKSNSVQEQRNVTIKGVENSSYLVALDKLNPYTLYTFRIRCSTETFWKWSKWSNKKQHLTTEAS | 16.9

From US20210300992A1 (Stanford University, published 2021)
